Source: doi:10.1101/2022.01.09.475535

Molecular target: SF3B1 N-terminal region, residues 147-462 (SFB1^147-462) (human) (UniProt O75533)
Test: ITC

Sequence of SF3B1 N-terminal region, residues 147-462 (SFB1^147-462) (human) (O75533 147-462): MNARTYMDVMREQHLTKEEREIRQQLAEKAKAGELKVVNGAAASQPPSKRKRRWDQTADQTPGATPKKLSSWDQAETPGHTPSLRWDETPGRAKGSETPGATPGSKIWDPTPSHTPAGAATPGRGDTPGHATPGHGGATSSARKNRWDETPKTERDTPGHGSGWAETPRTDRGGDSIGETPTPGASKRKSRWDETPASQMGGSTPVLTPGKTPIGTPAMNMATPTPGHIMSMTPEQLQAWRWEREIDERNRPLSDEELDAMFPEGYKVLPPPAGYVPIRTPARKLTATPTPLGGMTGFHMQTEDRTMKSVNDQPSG

U2AF2^12UL (nearly full-length U2AF2, residues 141-471) (domain or fragment)
stoichiometry N (U2AF2^12UL per SF3B1 ULM region): 2
